According to IntAct's records for PubMed 17098193:

B1: Splicing factor 3A subunit 1 (Homo sapiens), Q15459 (parent)
chain: MPAGPVQAVPPPPPVPTEPKQPTEEEASSKEDSAPSKPVVGIIYPPPEVRNIVDKTASFVARNGPEFEARIRQNEINNPKFNFLNPNDPYHAYYRHKVSEFKEGKAQEPSAAIPKVMQQQQQTTQQQLPQKVQAQVIQETIVPKEPPPEFEFIADPPSISAFDLDVVKLTAQFVARNGRQFLTQLMQKEQRNYQFDFLRPQHSLFNYFTKLVEQYTKILIPPKGLFSKLKKEAENPREVLDQVCYRVEWAKFQERERKKEEEEKEKERVAYAQIDWHDFVVVETVDFQPNEQGNFPPPTTPEELGARILIQERYEKFGESEEVEMEVESDEEDDKQEKAEEPPSQLDQDTQVQDMDEGSDDEEEGQKVPPPPETPMPPPLPPTPDQVIVRKDYDPKASKPLPPAPAPDEYLVSPITGEKIPASKMQEHMRIGLLDPRWLEQRDRSIREKQSDDEVYAPGLDIESSLKQLAERRTDIFGVEETAIGKKIGEEEIQKPEEKVTWDGHSGSMARTQQAAQANITLQEQIEAIHKAKGLVPEDDTKEKIGPSKPNEIPQQPPPPSSATNIPSSAPPITSVPRPPTMPPPVRTTVVSAVPVMPRPPMASVVRLPPGSVIAPMPPIIHAPRINVVPMPPSAPPIMAPRPPPMIVPTAFVPAPPVAPVPAPAPMPPVHPPPPMEDEPTSKKLKTEDSLMPEEEFLRRNKGPVSIKVQVPNMQDKTEWKLNGQVLVFTLPLTDQVSVIKVKIHEATGMPAGKQKLQYEGIFIKDSNSLAYYNMANGAVIHLALKERGGRKK
partner: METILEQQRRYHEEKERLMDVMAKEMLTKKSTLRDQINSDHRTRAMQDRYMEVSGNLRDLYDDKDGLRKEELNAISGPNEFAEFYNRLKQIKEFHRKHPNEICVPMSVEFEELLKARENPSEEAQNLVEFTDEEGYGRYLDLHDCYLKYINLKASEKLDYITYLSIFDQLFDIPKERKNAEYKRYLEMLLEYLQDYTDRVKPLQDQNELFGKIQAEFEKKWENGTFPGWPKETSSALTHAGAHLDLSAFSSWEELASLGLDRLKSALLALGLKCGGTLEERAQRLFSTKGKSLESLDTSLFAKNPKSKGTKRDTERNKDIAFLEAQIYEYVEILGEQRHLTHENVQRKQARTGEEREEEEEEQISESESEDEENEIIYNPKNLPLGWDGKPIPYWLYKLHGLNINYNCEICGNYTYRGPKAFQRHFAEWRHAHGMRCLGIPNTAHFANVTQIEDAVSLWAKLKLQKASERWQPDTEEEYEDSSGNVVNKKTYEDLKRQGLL

Variants of: B1
Conditions: with sf3a3_human SF3A3, Q12874

| effect of a mutation on the interaction | Variant |
| --- | --- |
| increasing interaction | K55L |

Variants of: B1
Conditions: with sf3a3_human SF3A3, Q12874
Remark: another data set of the same source

| effect of a mutation on the interaction | Variant |
| --- | --- |
| disrupting interaction | L169K |
